In test [1] the target is T1, ClfA229–545 (Staphylococcus aureus, UniProt Q53653).
T1 sequence (Q53653 229-545): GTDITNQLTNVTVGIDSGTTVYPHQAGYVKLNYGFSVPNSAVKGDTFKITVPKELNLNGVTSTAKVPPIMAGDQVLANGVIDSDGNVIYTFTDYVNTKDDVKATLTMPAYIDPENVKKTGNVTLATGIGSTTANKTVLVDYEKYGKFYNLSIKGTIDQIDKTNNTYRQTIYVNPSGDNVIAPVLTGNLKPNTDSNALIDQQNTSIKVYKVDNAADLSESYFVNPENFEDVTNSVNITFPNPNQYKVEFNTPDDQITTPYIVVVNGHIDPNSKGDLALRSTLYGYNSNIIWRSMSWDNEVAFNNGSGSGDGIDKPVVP
To be noted: read-out: Kd of ClfA229–545 binding to immobilized GST fusion protein; solid-phase assay, 1 µg GST fusion per well, increasing rClfA229–545, anti-His detection (Fig. 1C).
Experimental: (§1) ClfA229–545 (100 nM) was pre-incubated with wild-type Fg γ^1–17 peptide (WT γ^1–17) or the P1 (G1A) to P17 (V17A) mutant peptide (50 µM) for 1 hr.
Immulon 4HBX Microtiter plates (Thermo) were coated with human Fg (1 µg/well) in HBS (10 mM HEPES, 100 mM NaCl, 3 mM EDTA, pH 7.4) over-night at 4°C. The wells were washed with HBS containing 0.05% (w/v) Tween-20 (HBST) and blocked with 5% (w/v) BSA in HBS for 1 h at 25°C. […] After incubation, the plates were washed 3 times with HBST. Anti-His antibodies (GE Healthcare) were added (1∶3000 in HBS) and the plates were incubated at 25°C for 1 h. The wells were subsequently washed 3 times with HBST and incubated with goat anti-mouse-AP secondary antibodies (diluted 1∶3000 in HBS; Bio-Rad) at 25°C for 1 h. The wells were washed 3 times with HBST and AP-conjugated polyclonal antibodies were detected by addition of p-nitrophenyl phosphate (Sigma) in 1 M diethanolamine (0.5 mM MgCl2, pH 9.8) and incubated at 25°C for 30–60 min. The plates were read at 405 nm in a ELISA plate reader (Thermomax, Molecular Devices). For the inhibition assays, recombinant ClfA229–545 was pre-incubated with Fg γ peptides in HBS for 1 h at 37°C.

Test [2] deals with GST-Fg γ^1–17 (residues 395–411 of the Fg γ-chain fused to a GST protein) (human) (UniProt P02679). As to the kind of experiment: ELISA; human Fg or GST fusion protein coated (1 µg/well); His-tagged ClfA added in increasing concentrations in HBS (10 mM HEPES, 100 mM NaCl, 3 mM EDTA, pH 7.4), 25°C, 1 h; bound ClfA detected with anti-His antibodies; apparent Kd.
Test [3] shares this target. Described as above. The source holds these as a separate data set.
Test [4] addresses human fibrinogen (Fg), full length (human) (UniProt P02671). Described as above.
The target of test [5] is T1, ClfA229–545. As to the kind of experiment: Isothermal titration calorimetry of ClfA229–545 with soluble Fg peptides. The arrangement: a smaller ClfA construct (229–545) predicted to be composed only of the N2 N3 domains; His tag (pQE-30 vector) (N); made in house; host or cells: Escherichia coli XL-1 Blue. To be noted: ITC, 30 µM ClfA in cell, 500–600 µM peptide in syringe, HBS pH 7.4, 30°C, single binding site model; read-out: Kd of peptide binding to ClfA229–545 in solution (ITC). As for the experimental part:
The interaction between ClfA proteins and soluble Fg peptides was analyzed by Isothermal titration calorimetry (ITC) using a VP-ITC microcalorimeter (MicroCal). The cell contained 30 µM ClfA and the syringe contained 500–600 µM peptide in HBS buffer (10 mM HEPES, 150 mM NaCl, pH 7.4). All samples were degassed for 5 min. The titration was performed at 30°C using a preliminary injection of 5 µl followed by 30 injections of 10 µl with an injection speed of 0.5 µl/sec. The stirring speed was 300 rpm. Data were fitted to a single binding site model and analyzed using Origin version 5 (MicroCal) software.

Test [6] addresses ClfA_(229–545) (clumping factor A, N2N3 domains) (Staphylococcus aureus strain Newman) (UniProt Q53653). As to the kind of experiment: ITC.
The target in test [7] is T1, ClfA229–545. As to the kind of experiment: Solid-phase inhibition assay: Fg γ peptides inhibit ClfA binding to immobilized GST-Fg γ^1–17. The arrangement: a smaller ClfA construct (229–545) predicted to be composed only of the N2 N3 domains; His tag (pQE-30 vector) (N); made in house; host or cells: Escherichia coli XL-1 Blue. As to conditions: read-out: inhibition of ClfA binding to immobilized GST-Fg γ^1–17.
Experimental: To identify specific residues in Fg that are important for binding to ClfA229–545, a panel of peptides (Fig. 1A) based on the Fg γ-chain sequence 395–411 (referred to as γ^1–17) were synthesized in which each position was sequentially substituted with an alanine residue (alanines 11 and 14 were changed to serines). These peptides were tested as inhibitors in solid-phase binding assays, using a peptide concentration giving about 50% inhibition by the wild-type peptide.
as §1
Immulon 4HBX Microtiter plates (Thermo) were coated with human Fg (1 µg/well) in HBS (10 mM HEPES, 100 mM NaCl, 3 mM EDTA, pH 7.4) over-night at 4°C. The wells were washed with HBS containing 0.05% (w/v) Tween-20 (HBST) and blocked with 5% (w/v) BSA in HBS for 1 h at 25°C. […] After incubation, the plates were washed 3 times with HBST. Anti-His antibodies (GE Healthcare) were added (1∶3000 in HBS) and the plates were incubated at 25°C for 1 h. […] The wells were washed 3 times with HBST and AP-conjugated polyclonal antibodies were detected by addition of p-nitrophenyl phosphate (Sigma) in 1 M diethanolamine (0.5 mM MgCl2, pH 9.8) and incubated at 25°C for 30–60 min. The plates were read at 405 nm in a ELISA plate reader (Thermomax, Molecular Devices). […]

For test [8], the target named is T2, ClfA_(229–545) (clumping factor A, N2N3 domains) (Staphylococcus aureus strain Newman, UniProt Q53653 229-545).
T2 chain: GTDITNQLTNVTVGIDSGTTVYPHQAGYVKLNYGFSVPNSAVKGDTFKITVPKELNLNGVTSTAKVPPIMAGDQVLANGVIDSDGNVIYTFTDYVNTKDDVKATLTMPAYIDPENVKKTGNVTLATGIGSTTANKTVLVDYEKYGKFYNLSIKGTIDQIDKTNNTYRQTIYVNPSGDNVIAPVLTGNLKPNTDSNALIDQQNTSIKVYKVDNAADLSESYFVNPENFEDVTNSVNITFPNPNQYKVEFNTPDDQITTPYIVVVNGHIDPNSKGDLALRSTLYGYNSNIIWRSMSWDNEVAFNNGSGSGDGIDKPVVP
Nature of the test: ITC.

Where two headings read alike, the source gives them in different places. Where no end group is shown, it is not given here.

These results are taken from article PMC2582960, “A Structural Model of the Staphylococcus aureus ClfA–Fibrinogen Interaction Opens New Avenues for the Design of Anti-Staphylococcal Therapeutics” (PLoS Pathogens, 2008).

human fibrinogen (Fg), full length (human), sequence (P02671 other isoform, or with tags, fused parts or gaps, chain 1 of 3): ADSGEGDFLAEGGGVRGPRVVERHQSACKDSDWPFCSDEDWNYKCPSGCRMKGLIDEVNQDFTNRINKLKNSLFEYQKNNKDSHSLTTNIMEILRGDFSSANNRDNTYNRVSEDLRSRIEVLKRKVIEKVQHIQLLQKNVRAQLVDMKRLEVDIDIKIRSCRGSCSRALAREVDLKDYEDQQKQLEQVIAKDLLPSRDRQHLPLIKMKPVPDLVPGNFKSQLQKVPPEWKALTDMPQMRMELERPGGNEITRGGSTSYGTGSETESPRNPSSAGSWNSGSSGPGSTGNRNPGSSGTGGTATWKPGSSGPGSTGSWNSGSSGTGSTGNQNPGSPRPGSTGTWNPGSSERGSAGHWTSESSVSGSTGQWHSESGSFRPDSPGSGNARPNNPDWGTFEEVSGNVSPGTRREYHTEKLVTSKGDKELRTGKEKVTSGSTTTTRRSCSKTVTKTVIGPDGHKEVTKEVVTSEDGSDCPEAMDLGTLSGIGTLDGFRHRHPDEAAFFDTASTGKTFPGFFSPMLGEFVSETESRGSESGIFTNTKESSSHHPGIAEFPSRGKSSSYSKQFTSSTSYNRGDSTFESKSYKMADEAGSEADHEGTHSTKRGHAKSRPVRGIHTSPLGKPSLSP
human fibrinogen (Fg), full length (human), sequence (P02675 31-491, chain 2 of 3, further chain): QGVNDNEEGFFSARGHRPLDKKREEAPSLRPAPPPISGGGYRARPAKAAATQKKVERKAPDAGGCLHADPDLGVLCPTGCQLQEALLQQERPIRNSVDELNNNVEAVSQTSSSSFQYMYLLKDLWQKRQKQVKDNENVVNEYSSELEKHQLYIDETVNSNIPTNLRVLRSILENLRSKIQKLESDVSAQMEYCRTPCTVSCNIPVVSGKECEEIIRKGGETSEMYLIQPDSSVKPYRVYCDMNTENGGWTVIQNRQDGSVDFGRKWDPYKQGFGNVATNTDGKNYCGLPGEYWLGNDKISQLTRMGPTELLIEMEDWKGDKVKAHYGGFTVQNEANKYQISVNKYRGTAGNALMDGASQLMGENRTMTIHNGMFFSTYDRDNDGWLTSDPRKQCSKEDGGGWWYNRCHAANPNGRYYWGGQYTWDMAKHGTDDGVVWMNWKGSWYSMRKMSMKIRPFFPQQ
human fibrinogen (Fg), full length (human), sequence (P02679 other isoform, or with tags, fused parts or gaps, chain 3 of 3, further chain): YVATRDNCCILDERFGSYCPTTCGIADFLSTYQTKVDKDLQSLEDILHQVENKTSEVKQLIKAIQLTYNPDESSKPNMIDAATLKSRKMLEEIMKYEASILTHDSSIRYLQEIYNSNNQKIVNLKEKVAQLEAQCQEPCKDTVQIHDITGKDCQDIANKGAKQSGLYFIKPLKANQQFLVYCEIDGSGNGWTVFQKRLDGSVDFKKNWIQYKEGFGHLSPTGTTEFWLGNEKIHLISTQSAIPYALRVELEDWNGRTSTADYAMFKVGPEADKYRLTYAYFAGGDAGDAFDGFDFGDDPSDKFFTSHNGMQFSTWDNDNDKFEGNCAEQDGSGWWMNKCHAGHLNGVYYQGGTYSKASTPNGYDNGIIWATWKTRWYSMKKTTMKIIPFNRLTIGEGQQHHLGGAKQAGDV

In the case of “GST-Fg γ^1–17: recombinant form of residues 395–411 of the Fg γ-chain fused to a GST protein (GEGQQHHLGGAKQAGDV; also: fused to GST, end not given here)”, the Kd with ClfA229–545 [1] was found to be 657 nM. For the molecule “ClfA_(229–545) (clumping factor A, N2N3 domains) (from UniProt Q53653 229-545) (domain or fragment)”, the Kd came to 657 nM in test [2] and 222 nM in test [3]. Turning to “ClfA_((229–545)D327C/K541C), stable closed conformation (from UniProt Q53653 229-545) (domain or fragment)”, the Kd turned out to be 20 nM in test [3] and 34 nM in test [4]. For GEGQQHHLGGAKQAGAV [γ^1–17 D16A], the Kd on ClfA229–545 [5] was 3 µM. As to “Fg γ^1–17 peptide, wild type (Fg γ-chain 395–411) (from UniProt P02679-2 421-437)”, in test [6], the Kd was 5.8 µM. GEGQQHHLGGAKQAGDV [WT γ^1–17]: the inhibition at 50 µM on ClfA229–545 [7] was around 50%. In addition, the Kd on ClfA229–545 [5] was 5.8 µM. In turn, GQQHHLGGAKQAGAV [Fg γ^1–17 _(D16A) peptide truncated by 2 amino acids at the N-terminus] gave a Kd in test [8] of 8.8 µM. Regarding HLGGAKQAGAV [Fg γ^1–17 _(D16A) peptide truncated by 6 amino acids at the N-terminus], the Kd in test [8] was 22.5 µM. In test [8], QHHLGGAKQAGAV [Fg γ^5–17 _(D16A) peptide (13 residues)] registered a Kd of 10.5 µM.
